{
  "source": "patent US20200239597A1",
  "about": "“AN ANTI-APOPTOTIC FUNCTION OF PKM2 AND INTRACELLULARLY EXPRESSED SCFV ANTIBODIES” (La Jolla Institute for Allergy and Immunology, priority 2017, published 2020)",
  "molecules": {"B1": {"name": "IB5: intracellularly expressed single-chain antibody (scFv) specific for PKM2, SEQ ID NO: 2; also made as monovalent recombinant scFv in E. coli (protein)", "scFv": "MAQVQLVETGPGLVKPSETLSLRCTVSGGSFDNYYWNWIRQPPGKGLEYIGYVFPSTGATNYNPSLGSRVTISLDTSKNQFSLTLTSVTTADTAIYYCVRSGHDLWTGSTWFDPWGQWTTVTVSSGGGGSGGGGSGGGGSEIVLTQSPGTLSLSPGERATLSCRASQSVSSSYLAWYQQKPGQAPRLLIYGASSRATGIPDRFSGSGSGTDFTLTISRLEPEDIAVYYCQQRSNWPRTFGQGTKVEIKRGLGGLASVDYKDDDDK", "modifications": "artificial intrabody clone 5", "notes": "also made as monovalent recombinant scFv in E. coli"}},
  "key": {"[1]": {"tested_on": "PKM2-deficient MEFs reconstituted with WT PKM2", "experiment": "Mitochondrial length by fluorescence microscopy (Tom20 staining)", "assay_type": "cell-based, mouse", "conditions": "PKM2-null MEFs reconstituted with WT PKM2", "text": "IB5 expression with WT PKM2 increased mitochondrial length, and PKM2 (K422R) expression increased mitochondrial length even in the absence of IB5. PKM2-deficient MEFs reconstituted with WT PKIM2 or PKM2(K422R) cDNA, were infected or not with IB5 lentivirus. […] Mitochondria were visualized by fluorescence microscopy after staining with Tom20 antibodies. Representative confocal images are shown.\nCells were analyzed 3 d after transfection with the indicated cDNA constructs (mean±s.e.m. of 3-5 experiments of 120-200 random selected cells."}, "Bcl-2 family proteins": {"tested_on": "Bcl-2 family proteins", "experiment": "Immunoblots of Bcl-2 family proteins", "assay_type": "cell-based, human", "conditions": "alone or in combination; TEPP-46 27 μM", "procedure": "Levels of several Bcl-2 family proteins were unchanged following IB5 expression or incubation with TEPP-46, or both. Cell lysates from 293T cells infected with and without IB5 and incubated with and without TEPP-46 (27 μM) were separated on SDS-12% polyacrylamide gels. Bcl-2 family proteins were detected by immunoblotting. The bands were quantified using ImageJ and normalized to the control cell lysate on the leftmost lane.\n293T cells were washed with PBS and lysed with PBS containing 1% NP-40. Protein concentration was determined using Pierce™ BCA reagent (ThermoFisher; 23221, 23224). 35 μg protein was loaded in each lane of 12% SDS-PAGE gels. Proteins were transferred to nitrocellulose membrane and immunoblotted with the following primary antibodies: anti-Bax antibody (Santa Cruz N20), anti-Bak antibody (Cell Signaling 3814), anti-Bid antibody (R&D Systems AF860), anti-Bim antibody (Sigma B7929), anti-Puma antibody (Cell Signaling 4976), anti-Bcl-2 antibody (Abcam 32124), anti-Bcl-xL antibody (Cell Signaling 2764) and anti-Mcl-1 (Santa Cruz S19) at 1:1000 dilution. The secondary anti-rabbit and mouse antibodies, conjugated with HRP, were obtained from Santa Cruz and were used at 1:2000 dilution. The luminescence signal was detected using ECL reagent (ThermoFisher 32106)."}, "HCT116 and U2OS cells": {"tested_on": "HCT116 and U2OS cells", "experiment": "Clonogenic survival with etoposide or staurosporine", "assay_type": "cell-based", "conditions": "150 nM etoposide", "procedure": "5×10^5 HCT116 and U2OS cells were plated and transfected with BimS expression plasmid including 150 nM etoposide or 1 μM Staurosporine. The plates were fixed and stained with crystal violet after 5 days and the total areas of colonies were measured. Mean, SD and P values were calculated from 3 individual plates."}, "Bax": {"biological_target": "Bax (Homo sapiens, UniProt Q07812)", "sequence (Q07812 whole entry, species assumed)": "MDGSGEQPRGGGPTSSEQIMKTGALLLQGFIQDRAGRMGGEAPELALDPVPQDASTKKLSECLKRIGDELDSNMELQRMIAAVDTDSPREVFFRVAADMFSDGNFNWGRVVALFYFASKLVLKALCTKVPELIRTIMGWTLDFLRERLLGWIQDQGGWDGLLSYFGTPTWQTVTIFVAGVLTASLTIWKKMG", "experiment": "In vitro Bax/cBid membrane permeabilization in liposomes or Xenopus egg mitochondrial outer membrane vesicles", "assay_type": "biochemical", "conditions": "recombinant scFv 5 added together with PKM2; not shown", "text": "Because no cytoprotective effect was seen when PKM2 was stimulated with allosteric activator TEPP-46 alone, or when PKM2 was replaced with the constitutively active PKIM1 (FIG. 3), the present inventors conclude that increased pyruvate kinase activity per se was insufficient for the cell survival effect induced by IB5. To test whether IB5:PIKM2 complexes could affect pro-apoptotic Bcl-2 family proteins directly, the present inventors used their own previously well-validated in vitro systems that recapitulate Bcl-2 family protein function in membranes. Here, recombinant Bax and cleaved Bid (cBid) proteins are incubated with protein-free liposomes or with isolated Xenopus egg mitochondrial outer membrane vesicles. Bax then becomes inserted into the membranes and forms large pores that recapitulate MOMP as it occurs within cells (Gillies et al., 2015; Kuwana et al., 2002; Kuwana et al., 2016; Schafer et al., 2009). The present inventors observed no effect of adding recombinant scFv 5 and PKIVI2 to these systems (not shown). Thus, the inventors saw no evidence that PKM2 acts directly on the process of Bax/Bak-mediated MOMP."}, "293T cells [2]": {"tested_on": "293T cells", "experiment": "Protection from death induced by transient expression of tBid", "assay_type": "cell-based, human", "conditions": "surviving cells counted after 72 h", "procedure": "FIG. 2B is a non-limiting graph representation of a transfection assay to assess the effect of IB5 in cells transfected with pro-apoptotic proteins BimS and tBid encoding cDNA. […] 293T cells were transfected treated with […] tBid or BimS cDNA. Surviving cells were counted after 72 h."}, "293T cells [3]": {"tested_on": "293T cells", "experiment": "Rescue of 293T cells from BimS-induced apoptosis (cell viability)", "assay_type": "cell-based, human", "procedure": "Human BimS cDNA was subcloned into a pShooter™ mammalian expression vector (pCMV/myc/cyto; Invitrogen), to allow the expression of BimS driven by a CMV promoter. […] 293T cells were then infected with the intrabody library and then transfected with 4 μg/ml BimS plasmid, using 10 l of Lipofectamine® 2000 transfection reagent (Thermo Fisher). After 24 h post-infection, the culture medium was replaced with fresh MEMc medium supplemented with 10% FBS and penicillin/streptomycin (Gibco-Invitrogen).\nCell viability was measured with a Countess™ Automated Cell Counter (Invitrogen) using trypan blue. For the clonogenic survival assay, 293T or MEFs cells were seeded in 6-well plates at 1×10^5 cells/well in a 2-ml volume, transfected with BimS cDNA and incubated for 24 h. Afterwards, the medium was replaced and the cells cultured for 3-4 days. Thereafter, the plates were rinsed with PBS and fixed and stained with a solution containing crystal violet (0.5% w/v) and glutaraldehyde (6% v/v) as described (Franken et al., 2006)."}},
  "data": [
    {"molecule": "B1", "values": [
      {"measurement": "average mitochondrial length", "setting": "[1]", "result": "increased the average mitochondrial length"},
      {"measurement": "levels of Bax, Bak, Bid, Bim, Puma, Bcl-2, Bcl-xL and Mcl-1", "setting": "Bcl-2 family proteins", "result": "failed to change the mitochondrial levels"},
      {"measurement": "clonogenic survival in cells treated with etoposide", "setting": "HCT116 and U2OS cells", "result": "promoted clonogenic survival"},
      {"measurement": "effect on Bax-mediated membrane pore formation (MOMP) in vitro", "setting": "Bax", "result": "no effect"},
      {"measurement": "protection from death induced by transient expression of tBid", "setting": "293T cells [2]", "result": "protected from death"},
      {"measurement": "percentage of 293T cells rescued from BimS-induced death", "setting": "293T cells [3]; single intrabody expressed from lentivirus, BimS cDNA transfection", "result": "15-20%"},
      {"measurement": "survival effect when expressed with a weaker promoter", "setting": "293T cells [3]; weaker promoter, not shown", "result": "reduced"}
    ]}
  ]
}
